From US20210038737A1
Blank lines part the entries; values can stand above or below the substance they belong to.

What was measured:
[1] = molecular target: CAL PDZ domain (CALP5-His) (UniProt Q9HD26); test: direct FP, condition C: 50 nM labeled peptide, CALP5-His titrated
[2] = molecular target: CAL PDZ domain (CALP5-His) (UniProt Q9HD26); test: FP competition, condition B: probe FAM-…-OH (100 nM) with 500 nM CALP5-His; competitor titrated
[3] = molecular target: CAL PDZ domain (CALP5-His) (UniProt Q9HD26); test: direct FP: 50 nM FITC-labeled peptide, PDZ domain titrated
[4] = molecular target: CAL PDZ domain (CALP5-His) (UniProt Q9HD26); test: FP competition
[5] = molecular target: CAL PDZ domain (CALP5-His) (UniProt Q9HD26); test: direct FP of FITC-labeled peptides
[6] = molecular target: CAL PDZ domain (CALP5-His) (UniProt Q9HD26); test: direct FP, ratio of KD values
NHERF2-PDZ1 domain = NHERF2-PDZ1 domain (UniProt Q15599); test: direct FP: 50 nM FITC-labeled peptide, PDZ domain titrated
Chain of NHERF2-PDZ1 domain (Q15599 11-90 limits assumed): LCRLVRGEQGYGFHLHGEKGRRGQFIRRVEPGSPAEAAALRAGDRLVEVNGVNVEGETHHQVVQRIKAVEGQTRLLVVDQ

NHERF2-PDZ2 domain = NHERF2-PDZ2 domain (UniProt Q15599); test: as above
Chain of NHERF2-PDZ2 domain (Q15599 150-230 limits assumed): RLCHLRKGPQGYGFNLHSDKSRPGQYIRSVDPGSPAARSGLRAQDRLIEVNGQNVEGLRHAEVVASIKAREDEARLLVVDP

NHERF1-PDZ1 domain = NHERF1-PDZ1 domain (UniProt O14745); test: as above
Chain of NHERF1-PDZ1 domain (O14745 14-94 limits assumed): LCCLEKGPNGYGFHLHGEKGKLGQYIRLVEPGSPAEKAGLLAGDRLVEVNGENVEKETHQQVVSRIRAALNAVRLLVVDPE

[7] = molecular target: CAL PDZ domain (CALP5-His) (UniProt Q9HD26); test: FP competition, condition A: probe peptide 26 (50 nM) with 100 nM CALP5-His; competitor titrated

IC50 [2]: 270 nM
Substance: peptide 21: Ac-Cys-(D-Arg)-(D-Arg)-Arg-(2-Nal)-Trp-Gln-Pen-Thr-Arg-Tle-OH

Kd [3]: 179 nM
Substance: peptide 27-FITC: FITC-miniPEG-Cys-(D-Arg)-Arg-Arg-Nal-Trp-Pro-Pen-Thr-Arg-Tle-OH

IC50 [2]: 165 nM
Substance: peptide 20: Ac-Cys-(D-Arg)-Arg-Arg-(2-Nal)-Trp-Gln-Pen-Thr-Arg-Tle-OH

IC50 [7]: 401 nM
Substance: peptide 22: Ac-Cys-Arg-(D-Arg)-Arg-(2-Nal)-Trp-Gln-Pen-Thr-Arg-Tle-OH

More lines, now with the values behind:

Substance: peptide 23: FAM-miniPEG-Cys-(D-Arg)-Arg-Arg-(2-Nal)-Trp-Pro-Pen-Thr-Arg-Tle-OH
Kd [1]: 168 nM

Substance: peptide 24: Ac-Cys-(D-Arg)-Arg-Arg-(2-Nal)-Trp-Pen-Tle-Thr-Arg-Tle-OH
fold decrease in CAL binding (vs parent, printed as peptide 22) [4]: 2 fold | IC50 [2]: 380 nM

Substance: peptide 25: Ac-Cys-(D-Arg)-Arg-Arg-(2-Nal)-(Bta)-Pen-Tle-Thr-Arg-Tle-OH
fold more potent than peptide 24 in CAL binding [4]: 1.5 fold | IC50 [2]: 235 nM

Substance: peptide 29-FITC: FITC-miniPEG-Cys-(D-Arg)-Arg-Arg-Nal-Bta-Pip-Pen-Thr-Arg-Tle-OH
fold improvement of CAL PDZ-binding affinity (Pip for Pro, vs peptide 28) [5]: 15 fold | fold selectivity for CAL PDZ over NHERF1/2 PDZ domains [6]: > 130 fold | Kd [3]: 6 nM | Kd (NHERF2-PDZ1 domain): 1370 nM | Kd (NHERF2-PDZ2 domain): 7480 nM | Kd (NHERF1-PDZ1 domain): 780 nM

Substance: peptide 26: FAM-miniPEG-Cys-(D-Arg)-Arg-Arg-(2-Nal)-(Bta)-Pen-Tle-Thr-Arg-Tle-OH
Kd [1]: 49 nM

Substance: peptide 28-FITC: FITC-miniPEG-Cys-(D-Arg)-Arg-Arg-Nal-Bta-Pro-Pen-Thr-Arg-Tle-OH
Kd [3]: 87 nM
